Residue numbers refer to the chain shown, from its start.
B1: anti-mutCALR antibody clone 127 (antibody, human IgG1, lambda, N297A, V domains shown)
VH: EVQLVQSGAEVKKPGASVKVSCKVSGYTLTELSMQWVRQAPGKGLEWMGGFDPDEGETMYAEKFQGRLTVTEDTSTDTVYMELRSLTSEDTALYFCATSPGYDFFDYWGQGTLVTVSS
VL: SYELTQPPSVSVAPGKTARITCGGDNIGSKSVHWYQQKPGQAPVLVVYDDSDRPSGIPERFSGSNSGNTATLTINRVEAGDEADYYCQVWDSSNDLLIFGGGTKLTVLG
B2: anti-mutCALR antibody clone 173 (antibody, human IgG1, lambda, N297A, V domains shown)
VH: B1 VH
VL: SYVLTQPPSVSVAPGQTARITCGGSDIGDEIVHWYQQKPGQAPVLVVYDDSDRPSGIPERFSGSNSGNTATLTISRAQAGDEADYYCQVWDSSSDHLIFGGGTKLTVLG
B3: anti-mutCALR antibody clone 187 (antibody, human IgG1, lambda, N297A, V domains shown)
VH: B1 VH with E55S, R84S, T87R, L93V
VL: B2 VL with A77V, Q78E
B4: anti-mutCALR antibody clone 142 (antibody, human IgG1, lambda, N297A, V domains shown)
VH: B1 VH with R84S, T87R, L93V
VL: B1 VL with E3V, N75S
B5: anti-mutCALR antibody clone 189 (antibody, human IgG1, lambda, N297A, V domains shown)
VH: B1 VH with E55D, G56A, R84S, T87R, L93V
VL: B2 VL with A77V, Q78E
B6: anti-mutCALR antibody clone 132 (antibody, human IgG1, lambda, N297A, V domains shown)
VH: B1 VH with R84S, T87R, L93V
VL: B1 VL
B7: anti-mutCALR antibody clone 143 (antibody, human IgG1, lambda, N297A, V domains shown)
VH: B1 VH with E55D, G56A, R84S, T87R, L93V
VL: B1 VL with E3V, N75S
B8: anti-mutCALR antibody clone 140 (antibody, human IgG1, lambda, N297A, V domains shown)
VH: B1 VH with E55A, R84S, T87R, L93V
VL: B1 VL with E3V, N75S
B9: anti-mutCALR antibody clone 137 (antibody, human IgG1, lambda, N297A, V domains shown)
VH: B1 VH
VL: B1 VL with E3V, N75S
B10: anti-mutCALR antibody clone 182 (antibody, human IgG1, lambda, N297A, V domains shown)
VH: B1 VH with E55S
VL: B2 VL with A77V, Q78E
B11: anti-mutCALR antibody clone 183 (antibody, human IgG1, lambda, N297A, V domains shown)
VH: B1 VH
VL: B2 VL with A77V, Q78E
B12: anti-mutCALR antibody clone 130 (antibody, human IgG1, lambda, N297A, V domains shown)
VH: B1 VH with E55A, R84S, T87R, L93V
VL: B1 VL
B13: anti-mutCALR antibody clone 184 (antibody, human IgG1, lambda, N297A, V domains shown)
VH: B1 VH with E55D, G56A
VL: B2 VL with A77V, Q78E
B14: anti-mutCALR antibody clone 136 (antibody, human IgG1, lambda, N297A, V domains shown)
VH: B1 VH with E55S
VL: B1 VL with E3V, N75S
B15: anti-mutCALR antibody clone 135 (antibody, human IgG1, lambda, N297A, V domains shown)
VH: B1 VH with E55A
VL: B1 VL with E3V, N75S
B16: anti-mutCALR antibody clone 171 (antibody, human IgG1, lambda, N297A, V domains shown)
VH: B1 VH with E55A
VL: B2 VL
B17: anti-mutCALR antibody clone 128 (antibody, human IgG1, lambda, N297A, V domains shown)
VH: B1 VH with E55D, G56A
VL: B1 VL
B18: anti-mutCALR antibody clone 134 (antibody, human IgG1, lambda, N297A)
heavy: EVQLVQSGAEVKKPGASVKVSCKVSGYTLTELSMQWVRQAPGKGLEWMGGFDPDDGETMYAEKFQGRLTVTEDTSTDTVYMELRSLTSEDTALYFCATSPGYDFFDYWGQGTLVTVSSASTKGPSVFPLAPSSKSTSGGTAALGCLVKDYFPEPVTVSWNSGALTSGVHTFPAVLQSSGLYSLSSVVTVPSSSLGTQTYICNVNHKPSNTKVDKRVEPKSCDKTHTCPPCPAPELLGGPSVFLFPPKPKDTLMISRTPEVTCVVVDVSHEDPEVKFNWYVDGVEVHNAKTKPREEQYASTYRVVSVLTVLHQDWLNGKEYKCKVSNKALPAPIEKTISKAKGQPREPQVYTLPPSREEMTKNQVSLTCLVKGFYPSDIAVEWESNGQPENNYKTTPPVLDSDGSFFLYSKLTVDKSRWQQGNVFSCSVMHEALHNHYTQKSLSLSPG
light: SYVLTQPPSVSVAPGKTARITCGGDNIGSKSVHWYQQKPGQAPVLVVYDDSDRPSGIPERFSGSNSGNTATLTISRVEAGDEADYYCQVWDSSNDLLIFGGGTKLTVLGQPKAAPSVTLFPPSSEELQANKATLVCLISDFYPGAVTVAWKADSSPVKAGVETTTPSKQSNNKYAASSYLSLTPEQWKSHRSYSCQVTHEGSTVEKTVAPTECS
B19: anti-mutCALR antibody clone 172 (antibody, human IgG1, lambda, N297A, V domains shown)
VH: B1 VH with E55S
VL: B2 VL
B20: anti-mutCALR antibody clone 181 (antibody, human IgG1, lambda, N297A, V domains shown)
VH: B1 VH with E55A
VL: B2 VL with A77V, Q78E
B21: anti-mutCALR antibody clone 138 (antibody, human IgG1, lambda, N297A, V domains shown)
VH: B1 VH with E55D, G56A
VL: B1 VL with E3V, N75S
B22: anti-mutCALR antibody clone 133 (antibody, human IgG1, lambda, N297A, V domains shown)
VH: B1 VH with E55D, G56A, R84S, T87R, L93V
VL: B1 VL
B23: anti-mutCALR antibody clone 131 (antibody, human IgG1, lambda, N297A, V domains shown)
VH: B1 VH with E55S, R84S, T87R, L93V
VL: B1 VL
B24: anti-mutCALR antibody clone 174 (antibody, human IgG1, lambda, N297A, V domains shown)
VH: B1 VH with E55D, G56A
VL: B2 VL
B25: anti-mutCALR antibody clone 186 (antibody, human IgG1, lambda, N297A, V domains shown)
VH: B1 VH with E55A, R84S, T87R, L93V
VL: B2 VL with A77V, Q78E
B26: anti-mutCALR antibody clone 141 (antibody, human IgG1, lambda, N297A, V domains shown)
VH: B1 VH with E55S, R84S, T87R, L93V
VL: B1 VL with E3V, N75S
B27: anti-mutCALR antibody clone 188 (antibody, human IgG1, lambda, N297A, V domains shown)
VH: B1 VH with R84S, T87R, L93V
VL: B2 VL with A77V, Q78E
B28: anti-mutCALR antibody clone 170 (antibody, human IgG1, lambda, N297A)
heavy: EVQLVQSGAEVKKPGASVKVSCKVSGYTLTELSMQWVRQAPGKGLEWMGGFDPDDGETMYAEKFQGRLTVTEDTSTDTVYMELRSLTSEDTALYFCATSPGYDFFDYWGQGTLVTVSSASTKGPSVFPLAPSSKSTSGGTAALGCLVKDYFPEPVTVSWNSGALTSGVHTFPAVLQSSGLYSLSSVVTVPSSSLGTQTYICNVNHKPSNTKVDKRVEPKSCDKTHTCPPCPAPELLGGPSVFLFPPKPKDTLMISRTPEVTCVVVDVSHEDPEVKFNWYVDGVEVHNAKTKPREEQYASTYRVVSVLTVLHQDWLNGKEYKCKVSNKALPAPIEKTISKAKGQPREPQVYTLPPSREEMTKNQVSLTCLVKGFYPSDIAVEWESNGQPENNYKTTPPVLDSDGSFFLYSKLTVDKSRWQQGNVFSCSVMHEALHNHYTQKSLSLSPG
light: B18 light with K16Q, D25S, N26D, S29D, K30E, S31I, V77A, E78Q, N94S, L96H
B29: anti-mutCALR antibody clone 55 (antibody, human IgG1, lambda, N297A)
heavy: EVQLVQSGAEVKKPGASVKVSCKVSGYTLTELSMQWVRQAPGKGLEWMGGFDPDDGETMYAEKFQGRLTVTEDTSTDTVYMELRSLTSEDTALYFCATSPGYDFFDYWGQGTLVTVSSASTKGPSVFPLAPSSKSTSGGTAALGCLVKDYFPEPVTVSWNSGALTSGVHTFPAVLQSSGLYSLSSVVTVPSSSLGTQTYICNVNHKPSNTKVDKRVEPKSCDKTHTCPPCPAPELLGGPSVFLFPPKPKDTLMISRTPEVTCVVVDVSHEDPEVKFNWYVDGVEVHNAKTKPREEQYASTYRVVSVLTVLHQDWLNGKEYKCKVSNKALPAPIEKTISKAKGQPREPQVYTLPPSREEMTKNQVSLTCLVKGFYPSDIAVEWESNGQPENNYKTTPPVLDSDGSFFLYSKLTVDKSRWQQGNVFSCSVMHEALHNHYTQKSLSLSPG
light: QSALTQPASVSGSPGQSITISCTGTSSDVGGYNYVSWYQQHPGKAPKLMIYEVSNRPSGVSNRFSGSNSGNTATLTINRVEAGDEADYYCQVWDSSNDLLIFGGGTKLTVLGQPKAAPSVTLFPPSSEELQANKATLVCLISDFYPGAVTVAWKADSSPVKAGVETTTPSKQSNNKYAASSYLSLTPEQWKSHRSYSCQVTHEGSTVEKTVAPTECS
notes: also called antibody 55
B30: anti-mutCALR antibody clone 56 (antibody, human IgG1, lambda, N297A, V domains shown)
VH: B1 VH with E55A
VL: QSALTQPASVSGSPGQSITISCTGTSSDVGGYNYVSWYQQHPGKAPKLMIYEVSNRPSGVSNRFSGSNSGNTATLTINRVEAGDEADYYCQVWDSSNDLLIFGGGTKLTVLG
B31: anti-mutCALR antibody clone 61 (antibody, human IgG1, lambda, N297A, V domains shown)
VH: B1 VH with E55A, R84S, T87R, L93V
VL: B30 VL
B32: anti-mutCALR antibody clone 58 (antibody, human IgG1, lambda, N297A, V domains shown)
VH: B1 VH
VL: B30 VL
B33: anti-mutCALR antibody clone 59 (antibody, human IgG1, lambda, N297A, V domains shown)
VH: B1 VH with E55D, G56A
VL: B30 VL

Molecular target: T1, human mutCALR on BaF3 cells stably expressing human MPL and human mutCALR (MPL-mutCALR cells) (human)
T1 construct: also called mutant calreticulin
T1 chain: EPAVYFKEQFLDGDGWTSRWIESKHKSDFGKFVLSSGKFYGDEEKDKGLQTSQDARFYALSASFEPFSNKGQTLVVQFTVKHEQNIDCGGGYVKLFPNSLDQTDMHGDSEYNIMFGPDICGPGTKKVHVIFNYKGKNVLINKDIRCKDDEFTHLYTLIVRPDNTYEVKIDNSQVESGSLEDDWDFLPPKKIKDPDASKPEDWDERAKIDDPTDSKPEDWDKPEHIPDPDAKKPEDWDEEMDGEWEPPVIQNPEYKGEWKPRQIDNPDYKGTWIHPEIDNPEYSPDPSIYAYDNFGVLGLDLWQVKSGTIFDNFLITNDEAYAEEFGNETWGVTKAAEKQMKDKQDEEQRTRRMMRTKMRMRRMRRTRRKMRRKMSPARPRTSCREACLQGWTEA
Assay: flow cytometry, BaF3 MPL-mutCALR cells
Description: On the day of the assay, cells were washed and resuspended in assay buffer. Approximately 200,000 cells/well were added to 96-well plates and stained with the indicated concentration of antibodies for 30 minutes on ice. Cells were then washed and stained with goat anti-human secondary conjugated to R-phycoerythrin (R-PE) (Jackson Immuno Research Laboratories) for 30 minutes on ice. The cells were then washed and analyzed by flow cytometry.

| Binder | EC50 | MPL-mutCALR AUC |
| --- | --- | --- |
| B1 | 1.4 ng/mL | 73500 |
| B2 | 4.3 ng/mL | 67300 |
| B3 | 3.5 ng/mL | 49500 |
| B4 | 2.3 ng/mL | 71100 |
| B5 | 10 ng/mL | 57200 |
| B6 | 0.4 ng/mL | 73400 |
| B7 | 7.9 ng/mL | 69900 |
| B8 | 4.3 ng/mL | 54700 |
| B9 | 1.7 ng/mL | 69700 |
| B10 | 5.2 ng/mL | 52100 |
| B11 | 5 ng/mL | 70700 |
| B12 | 1.7 ng/mL | 58300 |
| B13 | 6.3 ng/mL | 61600 |
| B14 | 2 ng/mL | 65000 |
| B15 | 3.2 ng/mL | 56300 |
| B16 | 21.7 ng/mL | 50300 |
| B17 |  | 88900 |

| Binder | EC50 | MPL-mutCALR AUC |
| --- | --- | --- |
| B18 |  | 96700 |
| B19 | 12.4 ng/mL | 53600 |
| B20 | 3.5 ng/mL | 55600 |
| B21 | 2.6 ng/mL | 85800 |
| B22 | 1.7 ng/mL | 85200 |
| B23 | 1.1 ng/mL | 58300 |
| B24 | 4 ng/mL | 63500 |
| B25 | 3.9 ng/mL | 53000 |
| B26 | 6.3 ng/mL | 60800 |
| B27 | 4.4 ng/mL | 68000 |
| B28 | 23.2 ng/mL | 76400 |
| B29 | 10.1 ng/mL | 73100 |
| B30 | 6.9 ng/mL | 64400 |
| B31 | 6.3 ng/mL | 62400 |
| B32 | 8.6 ng/mL | 69800 |
| B33 | 7.7 ng/mL | 75700 |

Reference: US20230272055A1 (Incyte, published 2023)
